Test results as given in article PMC8786284, “Serine acetyltransferase from Neisseria gonorrhoeae; structural and biochemical basis of inhibition” (Biochemical Journal, 2022).

B1: Neisseria gonorrhoeae serine acetyltransferase (enzyme, Neisseria gonorrhoeae MS11, UniProt Q5F6X0 1-272, looked up)
chain: MKKNHLNTTGFDLWHTIREETAAAAAAEPMLASFLHQTVLRHESLGSVLAYHLSSKLGSPIMDVRALFEIYQQALGSDTQISKCVEADLKAIYERDPACDEYSLPLLYFKGFHAIQAHRINHRLYLDGRKTLAYFLQNRMSEVFGVDIHPAARLGYGLMLDHATGFVAGETAVLGNNISILHGVTLGGSGKEGGDRHPKIGDGVMIGANASILGNIRIGSNAKIGAGSVVVSDVPPSITVVGVPAKPVARSLKTPSADMDQNIQFAEIDFMI
notes: 272-residue polypeptide (N-terminal domain 1-144, LbetaH domain 145-272) with an uncleaved 21-residue N-terminal histidine tag; monomer with tag 31.6 kDa; Hexamer (dimer of trimers); also called NgSAT; SAT; source: E. coli BL21 (DE3), purified (HisTrap IMAC, gel filtration); not shown: His-tag, N-terminal, kept

Legend:
[1] = biological target: T1, Serine acetyltransferase (NgSAT) (Neisseria gonorrhoeae, UniProt Q5F6X0); assay: biochemical
T1 construct: gene NGO_1423; full-length, N-terminal His-tag, hexamer

[2] = biological target: the molecule itself; assay: SEC-SAXS; Superdex 200 5/150 in line with SAXS, co-flow; 50 mM Tris pH 8.0, 100 mM NaCl, without or with 50 µM L-cysteine; 25°C; mass from Porod volume and P(r) analysis
[3] = substrate: N[C@@H](CO)C(=O)O; assay: purified protein; format: biochemical, Neisseria gonorrhoeae; conditions: active site between adjacent monomers; Asp96, Asp161, His162, Arg196, His197
[4] = substrate: CC(=O)SCCNC(=O)CCNC(=O)[C@H](O)C(C)(C)COP(=O)(O)OP(=O)(O)OC[C@H]1O[C@@H](n2cnc3c(N)ncnc32)[C@H](O)[C@@H]1OP(=O)(O)O; assay: Michaelis-Menten kinetics (KM) with purified enzyme; format: biochemical, Neisseria gonorrhoeae
[5] = biological target: the molecule itself; assay: SEC; Enrich 650 analytical gel filtration column calibrated with Gel Filtration Standards (Bio-Rad); 50 mM Tris pH 8.0, 100 mM NaCl; oligomeric state of NgSAT

Molecule	IC50 [1] [µM]	stoichiometry N [2] [monomers per structure]	Km [3] [µM]	kcat [3] [s⁻¹]	kcat/Km [3] [M⁻¹ s⁻¹]	Km [4] [µM]	kcat [4] [s⁻¹]	kcat/Km [4] [M⁻¹ s⁻¹]	stoichiometry N [5]
CC(C)(COP(=O)(O)OP(=O)(O)OC[C@H]1O[C@@H](n2cnc3c(N)ncnc32)[C@H](O)[C@@H]1OP(=O)(O)O)[C@@H](O)C(=O)NCCC(=O)NCCS [coenzyme A]	573 ± 11	–	–	–	–	–	–	–	–
B1	–	6.1	1210 ± 160	1440 ± 41	1.19e+06	149 ± 50	1180 ± 111	7.89e+06	6
